We go through 1 molecule from PMC4232046 (2014).

The target of this experiment is Aspergillus fumigatus core CCAAT-binding complex (HapB(230–299), HapC(40–137), HapE(47–164)) (Aspergillus fumigatus). Briefly: SPR. (In general: Surface plasmon resonance follows binding to a sensor surface in real time, without labels.)

B1: Aspergillus fumigatus HapX(24–158) (domain or fragment)
chain: SPSPGPGTPGSITSKEWVIPPRPKPGRKPATDTPPTKRKAQNRAAQRAFRERRAARVNELEEQIKKIEDEHEIHIAAFKEQITNLSREVEQCRSEMTWWRDRCHALEKEVSVERSAKEAIVKEFRSSLSDREAVR
In general, Kd refers to the free concentration of one partner at which half of the binding sites on the other are occupied at equilibrium, for simple one-to-one binding. The low end stands for higher affinity, the high end for lower affinity. For B1, binding was characterised by a dissociation constant (Kd) of 35 nM.
